Columns and labels:
[1] = biological target: PfoI restriction endonuclease, wild type (Pseudomonas fluorescens biovar 126); assay: dynamic light scattering; PfoI-SP14 complex at various concentrations; Malvern Zetasizer uV; MW estimated from the apparent particle diameter
[2] = biological target: PfoI restriction endonuclease, wild type (Pseudomonas fluorescens biovar 126); assay: SEC; analytical gel filtration on Superdex75 10/300; 10 mM Tris-HCl pH 7.5, 5 mM calcium chloride, with 150 mM NaCl ('low salt') or 300 mM KCl ('high salt'); 13.8 uM PfoI dimer with or without oligoduplex SP14-GF (1:1.2)

Question: How did the stoichiometry N [1] turn out when “PfoI restriction endonuclease, wild type (enzyme)” was run?
Answer: 2

Question: And the stoichiometry N [2]?
Answer: 2

Source: paper PMC6344858
